Residue numbers refer to the chain shown, from its start. Names and notes keep the numbering of the source.
B1: decoration protein pb10 of bacteriophage T5, full-length, fused to a C-terminal histidine tag (natural protein, UniProt Q6QGD6 1-164, looked up)
chain: MIDYSGLRTIFGEKLPESHIFFATVAAHKYVPSYAFLRRELGLSSAHTNRKVWKKFVEAYGKAIPPAPPAPPLTLSKDLTASMSVEEGAALTLSVTATGGTGPYTYAWTKDGSPIPDASGATYTKPTAAAEDAGSYKVTVTDSKQVSKDSTTCAVTVNPTVPGG
notes: decoration protein pb10 of bacteriophage T5, 164 amino acids, GenBank AAU05286; Monomer by SEC-MALLS (17 kDa); 18.3 kDa with the His tag; also called pb10-His; His-tagged pb10; source: pET28b expression vector, purified (expression and purification detailed in SI); not shown: His-Tag, C-terminal, kept
B2: pb10 F36A-R38A (natural protein)
chain: B1 chain with F36A, R38A
B3: pb10 Y34A-R38E (natural protein)
chain: B1 chain with Y34A, R38E
B4: pb10 F36A (natural protein)
chain: B1 chain with F36A
B5: pb10 F36A-R38E (natural protein)
chain: B1 chain with F36A, R38E
B6: pb10 R38A (natural protein)
chain: B1 chain with R38A
B7: pb10 R38E (natural protein)
chain: B1 chain with R38E
B8: major capsid protein pb8 of bacteriophage T5 (natural protein, UniProt Q6QGD8 160-458, looked up)
chain: AVNQSSSVEVSSESYETIFSQRIIRDLQKELVVGALFEELPMSSKILTMLVEPDAGKATWVAASTYGTDTTTGEEVKGALKEIHFSTYKLAAKSFITDETEEDAIFSLLPLLRKRLIEAHAVSIEEAFMTGDGSGKPKGLLTLASEDSAKVVTEAKADGSVLVTAKTISKLRRKLGRHGLKLSKLVLIVSMDAYYDLLEDEEWQDVAQVGNDSVKLQGQVGRIYGLPVVVSEYFPAKANSAEFAVIVYKDNFVMPRQRAVTVERERQAGKQRDAYYVTQRVNLQRYFANGVVSGTYAAS
notes: major capsid protein (head protein) pb8 of bacteriophage T5, after its N-terminal scaffolding domain is cleaved off by the protease pb11; as a hexamer of the expanded capsid; Hexamer within the capsid lattice; the deposited model 5TJT is a homology model flexibly fitted into the cryo-EM map; also called head protein
B9: pb10 N-terminal domain (NTD), residues 1 to 77 (domain or fragment)
chain: MIDYSGLRTIFGEKLPESHIFFATVAAHKYVPSYAFLRRELGLSSAHTNRKVWKKFVEAYGKAIPPAPPAPPLTLSK

Key:
[1] = molecular target: bacteriophage T5 empty expanded capsid (without pb10) (bacteriophage T5); assay: SPR; as a3 but PBS containing 300 mM NaCl; koff set at 2 x 10^-4 s^-1; single experiment
Target sequence in this assay (Q6QGD5 11-403 limits assumed): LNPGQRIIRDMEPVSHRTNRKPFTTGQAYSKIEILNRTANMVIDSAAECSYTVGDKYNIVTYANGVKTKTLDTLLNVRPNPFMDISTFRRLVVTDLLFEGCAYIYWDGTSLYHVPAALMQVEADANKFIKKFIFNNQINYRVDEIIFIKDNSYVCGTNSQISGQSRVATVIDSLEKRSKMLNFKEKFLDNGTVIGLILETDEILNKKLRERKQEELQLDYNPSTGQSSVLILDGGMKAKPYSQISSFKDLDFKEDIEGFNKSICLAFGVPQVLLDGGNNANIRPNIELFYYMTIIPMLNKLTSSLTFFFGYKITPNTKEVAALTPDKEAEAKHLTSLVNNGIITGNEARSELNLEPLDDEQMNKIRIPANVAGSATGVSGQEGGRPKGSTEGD

[2] = molecular target: bacteriophage T5 empty expanded capsid (without pb10) (bacteriophage T5); assay: SPR; as a3 but PBS containing 500 mM NaCl; koff set at 2 x 10^-4 s^-1; single experiment
Target sequence in this assay (Q6QGD5 11-403 limits assumed): as above

[3] = molecular target: bacteriophage T5 empty expanded capsid (without pb10) (bacteriophage T5); assay: SPR; as a3 but PBS containing 750 mM NaCl; koff set at 2 x 10^-4 s^-1; single experiment
Target sequence in this assay (Q6QGD5 11-403 limits assumed): as above

[4] = molecular target: B8; assay: cryo-EM structure; icosahedral reconstructions of empty expanded capsids with pb10 (9 Å) and without pb10 (8 Å); pb8 homology model fitted into the hexamer density; details: both partners purified
[5] = molecular target: bacteriophage T5 empty expanded capsid (without pb10) (bacteriophage T5); assay: SPR; T200, 25 °C, PBS (137 mM NaCl) with 1 mg/mL BSA; expanded capsids captured on a CM5 chip through immobilised rabbit anti-capsid antibodies; pb10 variants 0.09 to 40 nM injected at 50 uL/min; koff set at 2 x 10^-4 s^-1 for all proteins; global fit to a Langmuir mass transport-limited model
[6] = molecular target: the molecule itself; assay: cryo-EM structure; icosahedral reconstructions of empty expanded capsids with pb10 (9 Å) and without pb10 (8 Å); pb8 homology model fitted into the hexamer density

Binder: B1
- Kd [1]: 1.8 pM
- koff [1]: 0.0002 s⁻¹
- kon [1]: 1.11e+08 M⁻¹ s⁻¹
- Kd [2]: 4.2 pM
- koff [2]: 0.0002 s⁻¹
- kon [2]: 4.76e+07 M⁻¹ s⁻¹
- Kd [3]: 22.2 pM
- koff [3]: 0.0002 s⁻¹
- kon [3]: 9.01e+06 M⁻¹ s⁻¹
- binding result [4]: binds
- Kd [5]: 1.11 pM
- koff [5]: 0.0002 s⁻¹
- kon [5]: 1.8e+08 M⁻¹ s⁻¹
- maximum mass increase of the capsid on decoration [5]: 8%
- signal decrease over 700 s of dissociation [5]: 7%

Binder: B2
- Kd [5]: 3.27 pM
- koff [5]: 0.0002 s⁻¹
- kon [5]: 6.11e+07 M⁻¹ s⁻¹

Binder: B3
- Kd [5]: 480 pM
- koff [5]: 0.0002 s⁻¹
- kon [5]: 417000 M⁻¹ s⁻¹

Binder: B4
- Kd [5]: 0.23 pM
- koff [5]: 0.0002 s⁻¹
- kon [5]: 8.66e+08 M⁻¹ s⁻¹

Binder: B5
- Kd [5]: 10.3 pM
- koff [5]: 0.0002 s⁻¹
- kon [5]: 1.95e+07 M⁻¹ s⁻¹

Binder: B6
- Kd [5]: 1.67 pM
- koff [5]: 0.0002 s⁻¹
- kon [5]: 1.2e+08 M⁻¹ s⁻¹

Binder: B7
- Kd [5]: 2.36 pM
- koff [5]: 0.0002 s⁻¹
- kon [5]: 8.47e+07 M⁻¹ s⁻¹

Binder: B8
- stoichiometry N [6]: 6

Binder: B9
- Kd [5]: 0.55 pM
- koff [5]: 0.0002 s⁻¹
- kon [5]: 3.62e+08 M⁻¹ s⁻¹

Source: paper PMC5292684, “High affinity anchoring of the decoration protein pb10 onto the bacteriophage T5 capsid” (Scientific Reports, 2017)
